In IntAct's records for PubMed 19293378:

B1: Apoptosis regulator BHRF1 (Epstein-Barr virus (strain B95-8) (HHV-4)), P03182 (parent)
chain: MAYSTREILLALCIRDSRVHGNGTLHPVLELAARETPLRLSPEDTVVLRYHVLLEEIIERNSETFTETWNRFITHTEHVDLDFNSVFLEIFHRGDPSLGRALAWMAWCMHACRTLCCNQSTPYYVVDLSVRGMLEASEGLDGWIHQQGGWSTLIEDNIPGSRRFSWTLFLAGLTLSLLVICSYLFISRGRH
partner: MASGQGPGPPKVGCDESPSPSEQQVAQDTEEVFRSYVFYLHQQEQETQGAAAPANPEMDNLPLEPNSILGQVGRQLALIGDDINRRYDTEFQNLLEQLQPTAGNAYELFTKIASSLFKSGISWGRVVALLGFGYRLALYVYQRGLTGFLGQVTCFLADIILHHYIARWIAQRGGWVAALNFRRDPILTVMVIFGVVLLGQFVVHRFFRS
B2: Apoptosis regulator BHRF1 (Epstein-Barr virus (strain B95-8) (HHV-4)), P03182 (parent)
chain: B1 chain

Variants of: B1
Details: with bak_mouse Bak1, O08734

| Variant | effect of a mutation on the interaction |
| --- | --- |
| L98A;G99A;R100A | disrupting interaction strength |
| L98A | decreasing interaction strength |
| R100A | decreasing interaction strength |
| G99A | decreasing interaction strength |

Variants of: B2
Details: with Bcl2l11, O54918
Chain of Bcl2l11, O54918 (O54918 whole entry): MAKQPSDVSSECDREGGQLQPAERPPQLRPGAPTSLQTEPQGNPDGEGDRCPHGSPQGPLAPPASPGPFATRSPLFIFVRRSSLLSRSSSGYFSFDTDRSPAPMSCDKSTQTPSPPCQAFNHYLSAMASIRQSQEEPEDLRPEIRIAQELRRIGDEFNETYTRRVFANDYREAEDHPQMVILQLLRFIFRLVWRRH

| Variant | effect of a mutation on the interaction |
| --- | --- |
| G99A | decreasing interaction strength |
